Where “and” joins values, the source holds several entries; their conditions need not be identical. Equal values may be shown once. Values belong to the substance of their own block, whether it stands above or below them.
How the values were obtained:
Experiment in all cases: FRET or BRET
[1] = target: AKAP79-CFP I338P variant (PPAIIIT), full-length (human) (UniProt P24588)
[2] = target: ATTO425-AKAP79(333–408), wildtype (PIAIIIT) (human) (UniProt P24588)
[3] = target: ATTO425-AKAP79(333–408) I338P variant (PPAIIIT) (human) (UniProt P24588)
[4] = target: AKAP79-CFP, wildtype, full-length (human) (UniProt P24588)
Chain of AKAP79-CFP, wildtype, full-length (human) (P24588 whole entry): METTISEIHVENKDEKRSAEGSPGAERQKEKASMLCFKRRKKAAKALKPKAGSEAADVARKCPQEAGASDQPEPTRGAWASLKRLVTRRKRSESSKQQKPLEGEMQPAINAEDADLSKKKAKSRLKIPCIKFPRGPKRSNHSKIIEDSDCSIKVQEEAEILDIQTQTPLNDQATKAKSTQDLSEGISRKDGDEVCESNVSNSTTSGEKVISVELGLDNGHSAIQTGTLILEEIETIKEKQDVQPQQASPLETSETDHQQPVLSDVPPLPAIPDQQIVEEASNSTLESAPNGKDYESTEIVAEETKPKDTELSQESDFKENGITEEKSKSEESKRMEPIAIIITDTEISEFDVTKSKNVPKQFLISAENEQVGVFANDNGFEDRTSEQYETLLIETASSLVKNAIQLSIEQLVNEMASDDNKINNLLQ

Chain of ATTO425-AKAP79(333–408), wildtype (PIAIIIT) (human) (P24588 333-408): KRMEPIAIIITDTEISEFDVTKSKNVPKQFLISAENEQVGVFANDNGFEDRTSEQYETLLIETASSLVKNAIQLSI
Chain of AKAP79-CFP I338P variant (PPAIIIT), full-length (human) (P24588 whole entry I338P): as the sequence (P24588 whole entry) above, with I338P counted along it
Chain of ATTO425-AKAP79(333–408) I338P variant (PPAIIIT) (human) (P24588 333-408 I338P): as the sequence (P24588 333-408) above, with I6P counted along it

- corrected YFP/CFP fluorescence intensity ratio (treated as 1:1 complex) [1]: 8.1
- corrected YFP/CFP fluorescence intensity ratio (treated as 2:1 complex) [1]: 7.1
Substance: CNAα-YFP (from UniProt Q08209 1-521) (enzyme)

- Kd [2]: 0.4 µM and 0.3 µM
- koff [2]: 9.96 s⁻¹
- half-time of dissociation [3]: 163 ms
Substance: rhodamine-CN (calcineurin labelled with tetramethylrhodamine acceptor) (from UniProt Q08209;P63098) (complex)

- corrected YFP/CFP fluorescence intensity ratio (treated as 2:1 complex) [4]: 6.1
- stoichiometry N [4]: 1
Substance: CNAα-YFP (from UniProt Q08209 1-521) (enzyme; other documents disagree on this pair)

Source: article PMC3294036
